The target of assay [1] is T1, recombinant mUHRF1 V1 (mouse, UniProt Q8VDF2 1-782).
T1 chain: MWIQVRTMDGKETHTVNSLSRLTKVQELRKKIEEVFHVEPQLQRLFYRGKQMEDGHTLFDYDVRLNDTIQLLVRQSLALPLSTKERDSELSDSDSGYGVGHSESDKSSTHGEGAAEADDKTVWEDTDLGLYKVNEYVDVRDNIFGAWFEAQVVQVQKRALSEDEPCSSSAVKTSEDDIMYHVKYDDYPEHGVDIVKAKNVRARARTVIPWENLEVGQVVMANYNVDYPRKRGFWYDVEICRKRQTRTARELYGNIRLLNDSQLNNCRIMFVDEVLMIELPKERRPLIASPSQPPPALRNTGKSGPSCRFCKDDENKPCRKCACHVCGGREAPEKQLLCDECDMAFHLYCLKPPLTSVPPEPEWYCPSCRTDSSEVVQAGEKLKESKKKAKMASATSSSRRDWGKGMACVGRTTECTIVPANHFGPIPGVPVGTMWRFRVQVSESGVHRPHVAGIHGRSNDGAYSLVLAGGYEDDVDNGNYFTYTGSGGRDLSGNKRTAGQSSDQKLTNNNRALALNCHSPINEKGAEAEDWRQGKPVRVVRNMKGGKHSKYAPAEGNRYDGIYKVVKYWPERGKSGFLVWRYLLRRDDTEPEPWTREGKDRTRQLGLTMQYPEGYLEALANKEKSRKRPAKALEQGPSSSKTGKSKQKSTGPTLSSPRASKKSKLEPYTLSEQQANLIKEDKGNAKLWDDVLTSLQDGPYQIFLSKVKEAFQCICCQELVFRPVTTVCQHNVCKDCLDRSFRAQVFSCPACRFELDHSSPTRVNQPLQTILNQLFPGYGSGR
The assay can be described thus: MST.

In assay [2] the target is T2, recombinant mUHRF1 V2 (mouse).
T2 chain: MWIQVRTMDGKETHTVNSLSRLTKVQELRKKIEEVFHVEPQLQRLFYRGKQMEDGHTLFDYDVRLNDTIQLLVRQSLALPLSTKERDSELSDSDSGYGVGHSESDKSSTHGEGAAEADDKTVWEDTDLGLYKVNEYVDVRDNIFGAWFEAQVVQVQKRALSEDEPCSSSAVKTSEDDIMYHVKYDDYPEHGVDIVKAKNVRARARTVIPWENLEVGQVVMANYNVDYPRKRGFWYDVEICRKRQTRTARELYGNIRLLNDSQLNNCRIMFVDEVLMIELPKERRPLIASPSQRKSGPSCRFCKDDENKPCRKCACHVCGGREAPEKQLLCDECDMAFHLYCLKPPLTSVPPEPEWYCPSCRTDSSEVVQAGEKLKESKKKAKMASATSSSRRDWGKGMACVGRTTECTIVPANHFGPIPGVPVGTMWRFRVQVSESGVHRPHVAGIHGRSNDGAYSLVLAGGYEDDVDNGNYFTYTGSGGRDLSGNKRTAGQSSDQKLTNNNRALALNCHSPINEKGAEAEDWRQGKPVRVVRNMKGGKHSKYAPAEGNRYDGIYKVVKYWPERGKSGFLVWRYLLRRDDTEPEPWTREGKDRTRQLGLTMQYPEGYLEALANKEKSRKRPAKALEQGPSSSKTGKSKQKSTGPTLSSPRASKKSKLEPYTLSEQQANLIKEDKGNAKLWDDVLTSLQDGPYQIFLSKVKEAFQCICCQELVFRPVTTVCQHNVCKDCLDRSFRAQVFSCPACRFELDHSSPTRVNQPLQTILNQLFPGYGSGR
The assay can be described thus: MST.

Assay [3] addresses T3, recombinant hUHRF1 (human, UniProt Q96T88-1 1-793).
T3 chain: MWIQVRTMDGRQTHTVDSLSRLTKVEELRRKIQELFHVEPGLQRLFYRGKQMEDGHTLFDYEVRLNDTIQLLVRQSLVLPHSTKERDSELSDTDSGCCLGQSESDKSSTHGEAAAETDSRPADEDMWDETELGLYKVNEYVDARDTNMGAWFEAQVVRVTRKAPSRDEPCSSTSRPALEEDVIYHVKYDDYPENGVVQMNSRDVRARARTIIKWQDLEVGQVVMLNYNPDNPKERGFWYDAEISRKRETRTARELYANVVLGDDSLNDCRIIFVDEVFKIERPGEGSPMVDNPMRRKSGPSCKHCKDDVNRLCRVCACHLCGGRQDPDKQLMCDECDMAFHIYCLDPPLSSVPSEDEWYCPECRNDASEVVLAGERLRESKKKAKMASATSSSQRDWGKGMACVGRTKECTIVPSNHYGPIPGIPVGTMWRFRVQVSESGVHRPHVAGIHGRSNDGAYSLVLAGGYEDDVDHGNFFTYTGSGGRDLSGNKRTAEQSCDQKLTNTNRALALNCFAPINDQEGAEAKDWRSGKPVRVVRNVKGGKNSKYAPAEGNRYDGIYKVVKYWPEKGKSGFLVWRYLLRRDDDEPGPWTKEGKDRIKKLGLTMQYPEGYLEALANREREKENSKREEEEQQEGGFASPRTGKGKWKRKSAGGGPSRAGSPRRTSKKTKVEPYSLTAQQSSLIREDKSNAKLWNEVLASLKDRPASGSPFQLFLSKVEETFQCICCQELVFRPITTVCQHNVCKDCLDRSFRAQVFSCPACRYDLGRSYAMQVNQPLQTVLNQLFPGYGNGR
The assay can be described thus: MST.

In assay [4] the target is T1, recombinant mUHRF1 V1. Put plainly: MST; + 100-fold molar excess PI5P.
Assay [5] deals with T2, recombinant mUHRF1 V2. The assay can be described thus: MST; + 100-fold molar excess PI5P.
The target of assay [6] is T3, recombinant hUHRF1. Put plainly: MST; + 100-fold molar excess PI5P.

Here are results for one molecule from publication PMC7430637 (2020).

Regarding ARTKQTARKSTGGKA (trimethyl-lysine at K9) [H3K9me3 peptide (titrated in MST)], the Kd with recombinant mUHRF1 V1 [1] stood at 1.4 µM; with recombinant mUHRF1 V2 [2], 4 µM; with recombinant hUHRF1 [3], 1.5 µM; in the assay with recombinant mUHRF1 V1 [4], 2.6 µM; with recombinant mUHRF1 V2 [5] it was 8.1 µM; with recombinant hUHRF1 [6], 0.08 µM.

A word on the Kd: it is the equilibrium constant for the complex coming apart.
